Where a chain is given by its changes, count along the chain named. Names and notes keep the numbering of the source.
T1: PUF4 RNA-binding domain (Saccharomyces cerevisiae, UniProt P25339 537-888)
T1 sequence: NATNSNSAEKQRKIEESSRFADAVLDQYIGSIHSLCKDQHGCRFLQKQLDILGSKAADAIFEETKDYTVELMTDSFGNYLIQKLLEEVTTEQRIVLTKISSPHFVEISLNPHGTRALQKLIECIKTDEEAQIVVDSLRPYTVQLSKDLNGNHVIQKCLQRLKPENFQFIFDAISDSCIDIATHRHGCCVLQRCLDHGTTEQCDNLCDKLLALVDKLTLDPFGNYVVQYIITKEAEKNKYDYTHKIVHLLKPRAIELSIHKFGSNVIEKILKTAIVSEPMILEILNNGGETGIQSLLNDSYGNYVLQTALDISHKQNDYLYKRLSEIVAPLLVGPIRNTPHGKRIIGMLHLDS

B1: Ie_S4_P5E.1_K5.1_C5.1_H5.1_A5.1_[+6C]_F5.1_T5.1 (ssRNA)
RNA: UUUGACAACUGAUCGUUCUUUCUUGUAUUCAUUAUUCUUUCUCGAUCAGUUGUCUUU
B2: Ie_S4_P5E.1_K5.1_C5.1_H5.1_A5.1_F5.1_[+8C]_T5.1 (ssRNA)
RNA: B1 RNA with C30A, A31U, U32C
B3: Ie_S4_P5E.1_K5.1_C5.1_H5.1_[+4CCTC]_A5.1_F5.1_T5.1 (ssRNA)
RNA: UUUGACAACUGAUCGUUCUUUCUUGUACCUCUUAUUAUUCUUUCUCGAUCAGUUGUCUUU
B4: Ie_S4_P5E.1_K5.1_C5.1_H5.1_A5.1_F5.1_[+8TTCC]_T5.1 (ssRNA)
RNA: B3 RNA with C28U, C29U, U30A, C31U, A34C, U35C
B5: Ie_S4_P5E.1_K5.1_C5.1_H5.1_[+4TTCC]_A5.1_F5.1_T5.1 (ssRNA)
RNA: B3 RNA with C28U, C29U, U30C
B6: Ie_S4_P5E.1_K5.1_C5.1_H5.1_A5.1_[+7CTCT]_F5.1_T5.1 (ssRNA)
RNA: B3 RNA with C28U, C29U, U30A, U33C, A34U
B7: Ie_S4_P5E.1_K5.1_C5.1_H5.1_A5.1_[+5CCCT]_F5.1_T5.1 (ssRNA)
RNA: B3 RNA with C28U, U30C
B8: Ie_S4_P5E.1_K5.1_C5.1_H5.1_[+4CCCT]_A5.1_F5.1_T5.1 (ssRNA)
RNA: B3 RNA with U30C, C31U
B9: Ie_S4_P5E.1_K5.1_C5.1_H5.1_A5.1_F5.1_[+8TCTC]_T5.1 (ssRNA)
RNA: B3 RNA with C28U, C29U, U30A, C31U, U33C, A34U, U35C
B10: Ie_S4_P5E.1_K5.1_C5.1_H5.1_A5.1_[+6TTCC]_F5.1_T5.1 (ssRNA)
RNA: B3 RNA with C28U, C29U, C31U, U32C, U33C
B11: Ie_S4_P5E.1_K5.1_C5.1_H5.1_A5.1_F5.1_[+8CTCT]_T5.1 (ssRNA)
RNA: B3 RNA with C28U, C29U, U30A, C31U, U32C, A34C
B12: Ie_S4_P5E.1_K5.1_C5.1_H5.1_A5.1_F5.1_[+9TCTC]_T5.1 (ssRNA)
RNA: B3 RNA with C28U, C29U, U30A, C31U, A34C, U36C
B13: Ie_S4_P5E.1_K5.1_C5.1_H5.1_[+4CCC]_A5.1_F5.1_T5.1 (ssRNA)
RNA: UUUGACAACUGAUCGUUCUUUCUUGUACCCUUAUUAUUCUUUCUCGAUCAGUUGUCUUU
B14: Ie_S4_P5E.1_K5.1_C5.1_H5.1_A5.1_[+7CTT]_F5.1_T5.1 (ssRNA)
RNA: B13 RNA with C28U, C29U, C30A, U31C, A33U
B15: Ie_S4_P5E.1_K5.1_C5.1_H5.1_A5.1_[+7CCC]_F5.1_T5.1 (ssRNA)
RNA: B13 RNA with C28U, C29U, C30A, U31C, U32C, A33C
B16: Ie_S4_P5E.1_K5.1_C5.1_H5.1_A5.1_[+6CCC]_F5.1_T5.1 (ssRNA)
RNA: B13 RNA with C28U, C29U, U31C, U32C
B17: Ie_S4_P5E.1_K5.1_C5.1_H5.1_[+4CTT]_A5.1_F5.1_T5.1 (ssRNA)
RNA: B13 RNA with C29U, C30U
B18: Ie_S4_P5E.1_K5.1_C5.1_H5.1_A5.1_F5.1_[+10TCC]_T5.1 (ssRNA)
RNA: B13 RNA with C28U, C29U, C30A, U35C, A36C
B19: Ie_S4_P5E.1_K5.1_C5.1_H5.1_A5.1_[+7CCT]_F5.1_T5.1 (ssRNA)
RNA: B13 RNA with C28U, C29U, C30A, U31C, U32C, A33U
B20: Ie_S4_P5E.1_K5.1_C5.1_H5.1_[+4CTC]_A5.1_F5.1_T5.1 (ssRNA)
RNA: B13 RNA with C29U
B21: Ie_S4_P5E.1_K5.1_C5.1_H5.1_A5.1_[+7TTT]_F5.1_T5.1 (ssRNA)
RNA: B13 RNA with C28U, C29U, C30A, A33U
B22: Ie_S4_P5E.1_K5.1_C5.1_H5.1_[+4TCC]_A5.1_F5.1_T5.1 (ssRNA)
RNA: B13 RNA with C28U
B23: Ie_S4_P5E.1_K5.1_C5.1_H5.1_A5.1_[+6TTC]_F5.1_T5.1 (ssRNA)
RNA: B13 RNA with C28U, C29U, C30U, U32C
B24: Ie_S4_P5E.1_K5.1_C5.1_H5.1_A5.1_[+5TTT]_F5.1_T5.1 (ssRNA)
RNA: B13 RNA with C28U, C29U, C30U
B25: Ie_S4_P5E.1_K5.1_C5.1_H5.1_A5.1_F5.1_[+9CCT]_T5.1 (ssRNA)
RNA: B13 RNA with C28U, C29U, C30A, A33C, U34C
B26: Ie_S4_P5E.1_K5.1_C5.1_H5.1_A5.1_F5.1_[+8TTC]_T5.1 (ssRNA)
RNA: B13 RNA with C28U, C29U, C30A, A33U, U34C
B27: Ie_S4_P5E.1_K5.1_C5.1_H5.1_A5.1_F5.1_[+9CCC]_T5.1 (ssRNA)
RNA: B13 RNA with C28U, C29U, C30A, A33C, U34C, U35C
B28: Ie_S4_P5E.1_K5.1_C5.1_H5.1_A5.1_F5.1_[+9CTC]_T5.1 (ssRNA)
RNA: B13 RNA with C28U, C29U, C30A, A33C, U35C
B29: Ie_S4_P5E.1_K5.1_C5.1_H5.1_A5.1_[+7TCT]_F5.1_T5.1 (ssRNA)
RNA: B13 RNA with C28U, C29U, C30A, U32C, A33U
B30: Ib_S2_P3E.1_K3.1_C3.1_H3.1_[A4G]_A3.1_[A6T]_F3.1_T3.1 (ssRNA)
RNA: UUUGAUUAAUAUGAUAUCGUUCUUUCUUGUGUUUAUUCUUUCUCGAUAUCAUAUUAAUCUUU
B31: Ib_S2_P3E.1_K3.1_C3.1_H3.1_[A4T]_A3.1_[A6T]_F3.1_T3.1 (ssRNA)
RNA: B30 RNA with G31U
B32: Ib_S2_P3E.1_K3.1_C3.1_H3.1_[A4C]_A3.1_[A6G]_F3.1_T3.1 (ssRNA)
RNA: B30 RNA with G31C, U33G
B33: Ib_S2_P3E.1_K3.1_C3.1_H3.1_[A4T]_A3.1_[A6C]_F3.1_T3.1 (ssRNA)
RNA: B30 RNA with G31U, U33C
B34: Ic_S2_P3E.1_K3.1_C3.1_H3.1_A3.1_[T5G]_[A6T]_F3.1_T3.1 (ssRNA)
RNA: B30 RNA with G31A, U32G
B35: Ib_S2_P3E.1_K3.1_C3.1_H3.1_[A4C]_A3.1_[A6T]_F3.1_T3.1 (ssRNA)
RNA: B30 RNA with G31C
B36: Ie_S4_P5E.1_K5.1_C5.1_H5.1_[+4TTCCT]_A5.1_F5.1_T5.1 (ssRNA)
RNA: UUUGACAACUGAUCGUUCUUUCUUGUAUUCCUUUAUUAUUCUUUCUCGAUCAGUUGUCUUU
B37: Ie_S4_P5E.1_K5.1_C5.1_H5.1_A5.1_F5.1_[+8CTCTC]_T5.1 (ssRNA)
RNA: B36 RNA with C30A, C31U, U32C, U34C, A35U, U36C
B38: Ie_S4_P5E.1_K5.1_C5.1_H5.1_A5.1_[+5TCTCT]_F5.1_T5.1 (ssRNA)
RNA: B36 RNA with C31U, U32C
B39: Ie_S4_P5E.1_K5.1_C5.1_H5.1_[+4CCCTT]_A5.1_F5.1_T5.1 (ssRNA)
RNA: B36 RNA with U28C, U29C, C31U
B40: Ie_S4_P5E.1_K5.1_C5.1_H5.1_A5.1_[+5CCCTT]_F5.1_T5.1 (ssRNA)
RNA: B36 RNA with U29C
B41: Ie_S4_P5E.1_K5.1_C5.1_H5.1_A5.1_F5.1_[+9CCTCT]_T5.1 (ssRNA)
RNA: B36 RNA with C30A, C31U, U33C, U34C, A35U, U36C
B42: Ie_S4_P5E.1_K5.1_C5.1_H5.1_A5.1_[+7CTCTC]_F5.1_T5.1 (ssRNA)
RNA: B36 RNA with C30A, U33C, A35C
B43: Ie_S4_P5E.1_K5.1_C5.1_H5.1_A5.1_F5.1_[+10TCTCT]_T5.1 (ssRNA)
RNA: B36 RNA with C30A, C31U, U33A, A35C, U37C, A38U
B44: Ie_S4_P5E.1_K5.1_C5.1_H5.1_A5.1_[+6CTCTC]_F5.1_T5.1 (ssRNA)
RNA: B36 RNA with C31U, U32C, U34C
B45: Ie_S4_P5E.1_K5.1_C5.1_H5.1_A5.1_[+5CTCTC]_F5.1_T5.1 (ssRNA)
RNA: B36 RNA with U29C, C30U, U33C
B46: Ie_S4_P5E.1_K5.1_C5.1_H5.1_A5.1_F5.1_[+9CTCTC]_T5.1 (ssRNA)
RNA: B36 RNA with C30A, C31U, U33C, A35C, U37C
B47: Ie_S4_P5E.1_K5.1_C5.1_H5.1_[+4CT]_A5.1_F5.1_T5.1 (ssRNA)
RNA: UUUGACAACUGAUCGUUCUUUCUUGUACUUUAUUAUUCUUUCUCGAUCAGUUGUCUUU
B48: Ie_S4_P5E.1_K5.1_C5.1_H5.1_A5.1_F5.1_[+8CT]_T5.1 (ssRNA)
RNA: B47 RNA with C28U, U30A, A32C
B49: Ie_S4_P5E.1_K5.1_C5.1_H5.1_A5.1_F5.1_[+10TT]_T5.1 (ssRNA)
RNA: B47 RNA with C28U, U30A, A32U, U33A, A35U
B50: Ie_S4_P5E.1_K5.1_C5.1_H5.1_A5.1_F5.1_[+8CC]_T5.1 (ssRNA)
RNA: B47 RNA with C28U, U30A, A32C, U33C

molecular target: T1, PUF4 RNA-binding domain; assay: Mg; RNA-MaP; 20 mM Na-HEPES pH 7.4, 30 mM KOAc, 0.75 mM MgCl2, 0.1% Tween-20, 5% glycerol, 0.1 mg/mL BSA, 2 mM DTT; 25 C; 0.0125-409.6 nM protein; details: tags: N-His6-TEV cleaved; C-SNAP kept, Cy3B-labelled; label: tethered on chip by stalled RNA polymerase

Binder | Kd [nM]
B1 | 13.4
B2 | 17.1
B3 | 7.54
B4 | 21.1
B5 | 9.55
B6 | 65.1
B7 | 16
B8 | 6.05
B9 | 20.1
B10 | 19.2
B11 | 27.8
B12 | 18
B13 | 3.18
B14 | 26.8
B15 | 85
B16 | 60.8
B17 | 1.26
B18 | 5.62
B19 | 66.5
B20 | 2.91
B21 | 12.5
B22 | 6.26
B23 | 32
B24 | 2.85
B25 | 17.6

Binder | Kd [nM]
B26 | 12.3
B27 | 10.8
B28 | 29.8
B29 | 24.9
B30 | 37
B31 | 576
B32 | 40.8
B33 | 472
B34 | 181
B35 | 1200
B36 | 16.5
B37 | 27.5
B38 | 14.2
B39 | 9.87
B40 | 20.8
B41 | 17.8
B42 | 28.7
B43 | 3.65
B44 | 43.6
B45 | 13.3
B46 | 25
B47 | 0.642
B48 | 16.1
B49 | 2.52
B50 | 21

— article PMC9352680, “A comprehensive thermodynamic model for RNA binding by the Saccharomyces cerevisiae Pumilio protein PUF4”
